# Measured values as given in IntAct's records for PubMed 38890443.
# B1: E3 ubiquitin-protein ligase RNF26 (Homo sapiens), Q9BY78 (parent)
# chain: MEAVYLVVNGLGLVLDVLTLVLDLNFLLVSSLLASLAWLLAFVYNLPHTVLTSLLHLGRGVLLSLLALIEAVVRFTCGGLQALCTLLYSCCSGLESLKLLGHLASHGALRSREILHRGVLNVVSSGHALLRQACDICAIAMSLVAYVINSLVNICLIGTQNLFSLVLALWDAVTGPLWRMTDVVAAFLAHISSSAVAMAILLWTPCQLALELLASAARLLASFVLVNLTGLVLLACVLAVTVTVLHPDFTLRLATQALSQLHARPSYHRLREDVMRLSRLALGSEAWRRVWSRSLQLASWPNRGGAPGAPQGDPMRVFSVRTRRQDTLPEAGRRSEAEEEEARTIRVTPVRGRERLNEEEPPGGQDPWKLLKEQEERKKCVICQDQSKTVLLLPCRHLCLCQACTEILMRHPVYHRNCPLCRRGILQTLNVYL
# partner: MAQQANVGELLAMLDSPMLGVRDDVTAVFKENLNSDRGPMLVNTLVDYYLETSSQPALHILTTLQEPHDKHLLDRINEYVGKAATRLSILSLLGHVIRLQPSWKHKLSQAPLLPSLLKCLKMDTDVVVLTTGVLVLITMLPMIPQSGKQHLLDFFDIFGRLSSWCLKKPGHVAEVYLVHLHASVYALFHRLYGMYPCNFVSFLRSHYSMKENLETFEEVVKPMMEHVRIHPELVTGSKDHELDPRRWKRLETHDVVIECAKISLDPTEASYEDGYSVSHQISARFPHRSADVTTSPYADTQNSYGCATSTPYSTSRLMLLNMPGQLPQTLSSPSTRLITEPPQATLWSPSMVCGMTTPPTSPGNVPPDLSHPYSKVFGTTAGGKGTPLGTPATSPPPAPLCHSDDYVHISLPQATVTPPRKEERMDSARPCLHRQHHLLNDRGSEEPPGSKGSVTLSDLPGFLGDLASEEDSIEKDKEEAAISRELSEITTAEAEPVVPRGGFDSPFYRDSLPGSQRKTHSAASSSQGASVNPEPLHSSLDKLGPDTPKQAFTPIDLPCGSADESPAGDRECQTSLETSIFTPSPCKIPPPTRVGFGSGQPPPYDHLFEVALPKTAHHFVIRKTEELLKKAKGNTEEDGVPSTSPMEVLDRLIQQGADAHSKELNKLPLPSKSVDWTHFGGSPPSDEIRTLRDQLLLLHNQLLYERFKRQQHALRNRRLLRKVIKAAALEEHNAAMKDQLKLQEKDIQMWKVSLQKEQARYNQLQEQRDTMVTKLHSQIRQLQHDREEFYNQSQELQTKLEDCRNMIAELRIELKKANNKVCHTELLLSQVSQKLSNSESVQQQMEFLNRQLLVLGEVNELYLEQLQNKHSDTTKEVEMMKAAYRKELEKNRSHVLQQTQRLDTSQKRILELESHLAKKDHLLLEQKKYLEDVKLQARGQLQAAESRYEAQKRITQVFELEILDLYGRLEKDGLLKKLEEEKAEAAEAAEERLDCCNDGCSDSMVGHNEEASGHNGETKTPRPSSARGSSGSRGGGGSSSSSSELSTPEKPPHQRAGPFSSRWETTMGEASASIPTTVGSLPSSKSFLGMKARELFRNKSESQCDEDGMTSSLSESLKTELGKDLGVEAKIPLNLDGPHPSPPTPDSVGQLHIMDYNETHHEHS
# Variants of: B1
# Conditions: with tsc1_human TSC1, Q92574
row,Variant,effect of a mutation on the interaction
1,T348A,decreasing interaction

# Variants of: B1
# Conditions: with tsc1_human TSC1, Q92574
# Remark: another data set of the same source
row,Variant,effect of a mutation on the interaction
1,T348D,increasing interaction
